Reference: patent publication US20260098095A1 (Hoffmann-La Roche, published 2026)

Columns and labels:
[1] = biological target: T1, HLA-A2/MAGE-A4 peptide MHC (pMHC) complex on cells (human); assay: cell-based or functional assay
[2] = biological target: T1, HLA-A2/MAGE-A4 peptide MHC (pMHC) …; assay: cell-based or functional assay; remark: listed apart in the source
Y3A = Y3A (human); assay: cell-based or functional assay
V10A = V10A (human); assay: cell-based or functional assay
R6A = R6A (human); assay: cell-based or functional assay
D4A = D4A (human); assay: cell-based or functional assay
E7A = E7A (human); assay: cell-based or functional assay
[3] = biological target: T1, HLA-A2/MAGE-A4 peptide MHC (pMHC) …; assay: cell-based or functional assay; remark: listed apart in the source
H8A = H8A (human); assay: cell-based or functional assay
T9A = T9A (human); assay: cell-based or functional assay
V2A = V2A (human); assay: cell-based or functional assay
G5A = G5A (human); assay: cell-based or functional assay
G1A = G1A (human); assay: cell-based or functional assay
gutQ = gutQ (human); assay: cell-based or functional assay
PIGG = PIGG (human); assay: cell-based or functional assay
PKP1 = PKP1 (human); assay: cell-based or functional assay
KEAP1 = KEAP1 (human); assay: cell-based or functional assay
CCS = CCS (human); assay: cell-based or functional assay
SLC45A1 = SLC45A1 (human); assay: cell-based or functional assay
VPS13D = VPS13D (human); assay: cell-based or functional assay
MTOR = MTOR (human); assay: cell-based or functional assay
BNRF1 = BNRF1 (human); assay: cell-based or functional assay
UBE2V2 = UBE2V2 (human); assay: cell-based or functional assay
CRMP1 = CRMP1 (human); assay: cell-based or functional assay
EDC3 = EDC3 (human); assay: cell-based or functional assay
ARF1 = ARF1 (human); assay: cell-based or functional assay
UNC80 = UNC80 (human); assay: cell-based or functional assay
KDM1A = KDM1A (human); assay: cell-based or functional assay
pfkA = pfkA (human); assay: cell-based or functional assay
DYNC1H1 = DYNC1H1 (human); assay: cell-based or functional assay
[4] = biological target: HLA-A2 with peptide MAGA10 on T2 cells (human); assay: cell-based or functional assay
GAPDHS = GAPDHS (human); assay: cell-based or functional assay
MAGEB2 = MAGEB2 (human); assay: cell-based or functional assay
ARF3 = ARF3 (human); assay: cell-based or functional assay
URB1 = URB1 (human); assay: cell-based or functional assay
FBXO34 = FBXO34 (human); assay: cell-based or functional assay
[5] = biological target: HLA-A2 with peptide MAGB6 on T2 cells (human); assay: cell-based or functional assay
DPYSL4 = DPYSL4 (human); assay: cell-based or functional assay
DPYSL3 = DPYSL3 (human); assay: cell-based or functional assay
[6] = biological target: T1, HLA-A2/MAGE-A4 peptide MHC (pMHC) …; assay: cell-based or functional assay; remark: listed apart in the source
[7] = biological target: T1, HLA-A2/MAGE-A4 peptide MHC (pMHC) …; assay: cell-based or functional assay; remark: listed apart in the source
[8] = biological target: T1, HLA-A2/MAGE-A4 peptide MHC (pMHC) …; assay: cell-based or functional assay; remark: listed apart in the source
[9] = biological target: T2, HLA-A2/MAGE-A4p230-239 complex (human); assay: SPR Biacore T200, antibody captured by anti-human Fc, pMHC complex as analyte, 25 C, 1:1 Langmuir fit
T2 construct: also called HLA-A2/MAGEp230-239
Description: The dissociation phase was monitored for 240 s and triggered by switching from the sample solution to HBS-EP+. The chip surface was regenerated after every cycle using an injection of 3M MgCl₂ at 10 μl/min for 30 sec. Bulk refractive index differences were corrected for by subtracting the response obtained on the reference flow cell which contains the anti-human Fc antibody, but without HLA-A2/MAGE-A4 antibody captured on it. The affinity constants were derived from the kinetic rate constants by fitting to a 1:1 Langmuir binding using the BIAeval software (GE Healthcare). The measurement was performed in triplicate with independent dilution series.

B1: Molecule B (bispecific antibody, V domains shown)
VH 1: YPQLVESGGGLVKPGGSLRLSCAARYPFTRLDMSWVRQAPGKGLEWVGSISPKGGSTYYNDNVLGRFTISRDNSKNTLYLQMNSLRAEDTAVYYCARDWGFFDNWGQGTLVTVSS
VL 1: AIQMTQSPSSLSASVGDRVTITCRASQSISNYLAWYQQKPGKAPKLLIYNASHPEYDVPSRFSGSGSGTDFTLTISSLQPEDFATYYCQQYSSHPYTFGQGTKLEIK
VH 2: not shown
VL 2: QAVVTQEPSLTVSPGGTVTLTCGSSTGAVTTSNYANWVQEKPGQAFRGLIGGTNKRAPGTPARFSGSLLGGKAALTLSGAQPEDEAEYYCALWYSNLWVFGGGTKLTVL
[1]
  EC50 [pM] 24 h, T-cell mediated lysis of MAGE-A4 peptide pulsed T2 cells: 72.8 pM
[2]
  EC50 [pM], T-cell mediated lysis of IM-9 cells, 24 h: 1080 pM
  EC50 [pM], T-cell mediated lysis of NCI-H1755 cells, 24 h: 168 pM
Y3A
  EC50, Jurkat-NFAT activation: 27.9 nM
V10A
  EC50, Jurkat-NFAT activation: 1.01 nM
R6A
  EC50, Jurkat-NFAT activation: 45.5 nM
D4A
  EC50, Jurkat-NFAT activation: 191 nM
E7A
  EC50, Jurkat-NFAT activation: 3.48 nM
[3]
  EC50, Jurkat-NFAT activation: 0.189 nM
H8A
  EC50, Jurkat-NFAT activation: 0.717 nM
T9A
  EC50, Jurkat-NFAT activation: 0.426 nM
V2A
  EC50, Jurkat-NFAT activation: 0.258 nM
G5A
  EC50, Jurkat-NFAT activation: 0.181 nM
G1A
  EC50, Jurkat-NFAT activation: 141 nM
gutQ
  % of MAGE-A4 signal, Jurkat-NFAT: 1.11%
PIGG
  % of MAGE-A4 signal, Jurkat-NFAT: 1.46%
PKP1
  % of MAGE-A4 signal, Jurkat-NFAT: 0.94%
KEAP1
  % of MAGE-A4 signal, Jurkat-NFAT: 1.07%
CCS
  % of MAGE-A4 signal, Jurkat-NFAT; grey (>2%): 10.8%
SLC45A1
  % of MAGE-A4 signal, Jurkat-NFAT: 1.22%
VPS13D
  % of MAGE-A4 signal, Jurkat-NFAT: 1.8%
MTOR
  % of MAGE-A4 signal, Jurkat-NFAT: 0.59%
BNRF1
  % of MAGE-A4 signal, Jurkat-NFAT: 1.05%
UBE2V2
  % of MAGE-A4 signal, Jurkat-NFAT: 1.37%
CRMP1
  % of MAGE-A4 signal, Jurkat-NFAT; grey (>2%): 67.5%
EDC3
  % of MAGE-A4 signal, Jurkat-NFAT: 0.63%
ARF1
  % of MAGE-A4 signal, Jurkat-NFAT: 1.14%
UNC80
  % of MAGE-A4 signal, Jurkat-NFAT: 0.98%
KDM1A
  % of MAGE-A4 signal, Jurkat-NFAT: 1.04%
pfkA
  % of MAGE-A4 signal, Jurkat-NFAT: 1.1%
DYNC1H1
  % of MAGE-A4 signal, Jurkat-NFAT: 0.85%
[4]
  % of MAGE-A4 signal, Jurkat-NFAT; grey (>2%): 10.6%
GAPDHS
  % of MAGE-A4 signal, Jurkat-NFAT: 1.37%
MAGEB2
  % of MAGE-A4 signal, Jurkat-NFAT: 1.58%
ARF3
  % of MAGE-A4 signal, Jurkat-NFAT: 1.59%
URB1
  % of MAGE-A4 signal, Jurkat-NFAT; grey (>2%): 67.9%
FBXO34
  % of MAGE-A4 signal, Jurkat-NFAT: 0.91%
[5]
  % of MAGE-A4 signal, Jurkat-NFAT; grey (>2%): 57.9%
DPYSL4
  % of MAGE-A4 signal, Jurkat-NFAT; grey (>2%): 53.1%
DPYSL3
  % of MAGE-A4 signal, Jurkat-NFAT; grey (>2%): 112%
[6]
  EC50 [pM], activation of Jurkat-NFAT reporter cells (luminescence, 6 h) with MAGE-A4 peptide pulsed T2 cells: ~8310 pM

B2: Molecule R (bispecific antibody, human IgG1, kappa, L234A L235A)
heavy 1: not shown
heavy 2: AQLVESGGGLVQPGGSLRLSCAASAYFSFKAMSWVRQAPGKGLEWVGSISPSGGSTYYNDNVLGRFTISRDNSKNTLYLQMNSLRAEDTAVYYCAKDVGFFDEWGQGTLVTVSSASTKGPSVFPLAPSSKSTSGGTAALGCLVEDYFPEPVTVSWNSGALTSGVHTFPAVLQSSGLYSLSSVVTVPSSSLGTQTYICNVNHKPSNTKVDEKVEPKSCDKTHTCPPCPAPEAAGGPSVFLFPPKPKDTLMISRTPEVTCVVVDVSHEDPEVKFNWYVDGVEVHNAKTKPREEQYNSTYRVVSVLTVLHQDWLNGKEYKCKVSNKALGAPIEKTISKAKGQPREPQVCTLPPSRDELTKNQVSLSCAVKGFYPSDIAVEWESNGQPENNYKTTPPVLDSDGSFFLVSKLTVDKSRWQQGNVFSCSVMHEALHNHYTQKSLSLSP
light 1: DIQMTQSPSSLSASVGDRVTITCRASQSISSYLAWYQQKPGKAPKLLIYDASIRDIGVPSRFSGSGSGTDFTLTISSLQPEDFATYYCQQYSSYPYTFGQGTKLEIKRTVAAPSVFIFPPSDRKLKSGTASVVCLLNNFYPREAKVQWKVDNALQSGNSQESVTEQDSKDSTYSLSSTLTLSKADYEKHKVYACEVTHQGLSSPVTKSFNRGEC
light 2: EVQLVESGGGLVQPGGSLRLSCAASGYSFTGYTMNWVRQAPGKGLEWVALINPYKGVSTYNQKFKDRFTISVDKSKNTAYLQMNSLRAEDTAVYYCARSGYYGDSDWYFDVWGQGTLVTVSSASVAAPSVFIFPPSDEQLKSGTASVVCLLNNFYPREAKVQWKVDNALQSGNSQESVTEQDSKDSTYSLSSTLTLSKADYEKHKVYACEVTHQGLSSPVTKSFNRGEC
[7]
  EC50 (nM), T-cell mediated lysis of A375 cells, 48 h: 1.47 nM
  EC50 (nM), T-cell mediated lysis of NCI-H2023 cells, 48 h: 1.06 nM
  EC50 (nM), T-cell mediated lysis of UMUC-3 cells, 48 h: 0.57 nM
[8]
  EC50 [pM], T-cell mediated lysis of A375 HLA-A2 overexpressing cells, 24 h: 0.08 pM
  EC50 [pM], T-cell mediated lysis of A375 cells, 24 h: 0.6 pM
[9]
  Kd: 13.1 nM
  koff: 0.0436 s⁻¹
  kon: 3.33e+06 M⁻¹ s⁻¹
